Article PMC3333882 (Nucleic Acids Research, 2011)

Target: MEF2C-Flag (myocyte enhancer factor 2C with Flag tag) (UniProt Q8CFN5 1-474)
Assay: co-IP

MEF2C-Flag (myocyte enhancer factor 2C with Flag tag), sequence (Q8CFN5 whole entry): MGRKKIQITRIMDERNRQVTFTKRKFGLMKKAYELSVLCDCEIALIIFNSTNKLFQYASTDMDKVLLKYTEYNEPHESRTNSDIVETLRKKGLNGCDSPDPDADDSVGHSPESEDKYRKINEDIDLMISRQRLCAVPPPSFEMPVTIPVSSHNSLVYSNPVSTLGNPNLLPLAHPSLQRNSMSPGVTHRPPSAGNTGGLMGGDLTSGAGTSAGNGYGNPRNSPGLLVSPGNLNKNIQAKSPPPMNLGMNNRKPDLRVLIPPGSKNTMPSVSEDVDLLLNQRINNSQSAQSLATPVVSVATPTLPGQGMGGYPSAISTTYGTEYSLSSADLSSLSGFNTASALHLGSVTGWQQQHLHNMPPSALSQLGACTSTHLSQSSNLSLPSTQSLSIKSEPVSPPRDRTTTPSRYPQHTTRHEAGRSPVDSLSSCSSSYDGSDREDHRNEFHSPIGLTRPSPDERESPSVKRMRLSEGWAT

B1: Gli2 (glioma-associated factor 2) (natural protein, mouse, UniProt Q0VGV1 1-1540, looked up)
chain: METSAPAPALEKKEAKSGLLEDSSFPDPGKKACPLAVAAAVAAHGVPQQLLPAFHAPLPIDMRHQEGRYHYDPHSVHSVHGPPTLSGSPFISDISLIRLSPHPAGPGESPFSAHHPYVNPHMEHYLRSVHSSPTLSMISAARGLSPADVAHEHLKERGLFSLAAPGTNPSDYYHQMTLMASHPTPYGDLLMQSGGAASAPHLHDYLNPVDASRFSSPRVTPRLSRKRALSISPLSDASLDLQRMIRTSPNSLVAYINNSRSSSAASGSYGHLSAGALSPAFTFPHPINPVAYQQILSQQRGLGSAFGHTPPLIQPSPTFLAQQPMTLTSISTMPTQLSSSSSNCLNDANQNKQNSESAVSSTVNPITIHKRSKVKTEAEGLRPASPLGLTQEQLADLKEDLDRDDCKQEAEGVIYETNCHWADCTKEYDTQEQLVHHINNEHIHGEKKEFVCRWQACTREQKPFKAQYMLVVHMRRHTGEKPHKCTFEGCSKAYSRLENLKTHLRSHTGEKPYVCEHEGCNKAFSNASDRAKHQNRTHSNEKPYICKIPGCTKRYTDPSSLRKHVKTVHGPDAHVTKKQRNDVHVRAPLLKENGDNEASAEPGGRGPEESVEASSTSHTVEDCLHIKAIKTESSGLCQSSPGAQSSCSSEPSPLGSAPNNDSGMEMPGTGPGSLGDLTALADTCPGADTSALAAPSTGGLQLRKHMSTVHRFEQLKREKLKSLKDSCSWAGPAPHTRNTKLPPLPVNGSVLENFNNTGGGGPAGLLPSQRLPELTEVTMLSQLQERRDSSTSTMSSAYTVSRRSSGISPYFSSRRSSEASPLGGLRPHNASSADSYDPISTDASRRSSEASQCSGGGPGLLNLTPAQQYNLRAKYAAATGGPPPTPLPGLDRVSLRTRLALLDAPERALPGACPHPLGPRRGSDGPTYSHGHGHGYAGAAPAFPHEGPNSSTRRASDPVRRPDPLILPRVQRFHSTHNMNPGSLPPCADRRGLHVQSHPSVDSNLTRNAYSPRPPSINENVVMEAVAAGVDGPGLECDLGLVEDELVLPDDVVQYIKAHTGGTLDDGIRQGYPTEGTGFPENSKLPSPGLQGHRRLAAADSNMGPSAPGLGGCQLSYSPSSNLNKSNMPVQWNEVSSGTVDALPTQVKPPPFPHSNLAVVQQKPAFGQYPGYNPQSVQSSSGGLDSTQPHLQLRGAPSASRGSYTQQPRQPAAGSQCLGMSAAMSPQASYSQAHPQLSPNIVSGSLNQFSPSCSNMAAKPSHLGLPQQMEVVPNATIMNGHQREHGVPNSSLAAVSQPHPVLSYPQQDSYQQGSNLLSSHQPGFMESQQNAGFGLMQPRPPLEPNTASRHRGVRSGQQQLYARTTGQAMVTSANQETAEAMPKGPAGTMVSLAPQPSQDTGRAQDQNTLYYYGQIHMYEQNGGCPAVQPQPPQPQACSDSIQPEPLPSPGVNQVSSTVDSQLLEPPQIDFDAIMDDGDHSSLFSGALSPTLLHNLSQNSSRLTTPRNSLTLPSIPAGISNMAVGDMSSMLTSLAEESKFF
fold amount co-immunoprecipitated against the Flag-vector control: 4 fold
